Measured values published in the supplement of paper PMC7877785.
± gives the uncertainty stated by the source.

Experiment: self-splicing fitness, log relative to wild type (ln ratio); higher = more splicing; Tetrahymena group I intron in knt gene, E. coli kanamycin selection, DiMSum; sequences stand for … in CUCUCU…GGAGGGAAAAGUUAUCAGGCAUGCACCUGGUAGCUAGUCUUUAAACCAAUAGAUUGCAUCGGUUUAAAAGGCAAGACCGUCAAAUUGCGGGAAAGGGGUCAACAGCCGUUCAGUACCAAGUCUCAGGGGAAACUUUGAGAUGGCCUUGCAAAGGGUAUGGUAAUAAGCUGACGGACAUGGUCCUAACCACGCAGCCAAGUCCUAAGUCAACAGAUCUUCUGUUGAUAUGGAUGCAGUUCACAGACUAAAUGUCGGUCGGGGAAGAUGUAUUCUUCUCAUAAGAUAUAGUCGGACCUCUCCUUAAUGGGAGCUAGCGGAUGAAGUGAUGCAACACUGGAGCCGCUGGGAACUAAUUUGUAUGCGAAAGUAUAUUGAUUAGUUUUGGAGUACUCGUGGUCG
Procedure, shortened: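 The eight P1ex-region nucleotides of an intron in the knt kanamycin-resistance gene on pET-22b(+) were all randomised and the library put into E. coli BL21(DE3). Six replicate transformations were grown overnight at 37°C or 30°C on LB agar with or without 25 μg/mL kanamycin, together with 100 μg/mL carbenicillin, 50 μM IPTG and 0.2% rhamnose. Colonies were pooled and amplicon-sequenced on an Illumina HiSeq 2500. Fitness from DiMSum is the error-weighted combination of wild-type-normalised replicate fold changes, kanamycin over none.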

Row | Sequence | self-splicing fitness (ln) (30 °C) | self-splicing fitness (ln) (37 °C)
1 | CAGUAGCAAUAUUACGUCAA | -2.64 ± 0.14 | -2.59 ± 0.26
2 | AAGAAGCAAUAUUACGCCUU | -3.53 ± 0.4 | -2.17 ± 0.33
3 | CAUAAGCAAUAUUACGUCAC | -3.86 ± 0.29 | 
4 | CUUAAGCAAUAUUACGCGUG | -2.99 ± 0.15 | -1.26 ± 0.12
5 | AGCUAGCAAUAUUACGUUAA | -2.49 ± 0.21 | -1.36 ± 0.14
6 | GGGCAGCAAUAUUACGCUAG | -1.86 ± 0.078 | -0.741 ± 0.11
7 | UCAAAGCAAUAUUACGUUAC |  | -2.01 ± 0.12
8 | AUACAGCAAUAUUACGGAUA | -2.52 ± 0.14 | -2.38 ± 0.17
9 | ACCGAGCAAUAUUACGAGCC | -3.21 ± 0.23 | -3.23 ± 0.32
10 | AAUCAGCAAUAUUACGUGUG | -0.753 ± 0.053 | -0.737 ± 0.067
11 | UUCCAGCAAUAUUACGGAGU | -4.4 ± 0.42 | 
12 | GUAUAGCAAUAUUACGGCUG | -1.2 ± 0.079 | -0.532 ± 0.097
13 | GAGUAGCAAUAUUACGAAUU | -2.14 ± 0.22 | -1.36 ± 0.17
14 | UAUAAGCAAUAUUACGCACA | -0.168 ± 0.085 | -0.211 ± 0.11
15 | UAGCAGCAAUAUUACGCCGG | -0.94 ± 0.096 | -0.0813 ± 0.15
16 | AGGAAGCAAUAUUACGACUA | 0.0184 ± 0.094 | -0.351 ± 0.12
17 | GACUAGCAAUAUUACGCCUG | -0.826 ± 0.12 | -0.091 ± 0.14
18 | GGAAAGCAAUAUUACGGUAA | -1.62 ± 0.15 | -0.544 ± 0.12
19 | UCUCAGCAAUAUUACGCUGA | -2.7 ± 0.25 | -3.19 ± 0.4
20 | UCAGAGCAAUAUUACGACAG | -2.53 ± 0.19 | -2.92 ± 0.36
21 | CUUUAGCAAUAUUACGCAUG | -1.2 ± 0.11 | -1.96 ± 0.11
22 | CUCUAGCAAUAUUACGGUCA | -3.27 ± 0.29 | -3.17 ± 0.37
23 | CGGGAGCAAUAUUACGGUUG | -1.89 ± 0.44 | 
24 | ACGAAGCAAUAUUACGCGCC | -0.967 ± 0.1 | 0.356 ± 0.14
25 | GAAAAGCAAUAUUACGUAUA | -0.936 ± 0.098 | -0.833 ± 0.12
26 | GUCCAGCAAUAUUACGAACG | -1.52 ± 0.13 | -0.855 ± 0.16

Row | Sequence | self-splicing fitness (ln) (30 °C) | self-splicing fitness (ln) (37 °C)
27 | GGCAAGCAAUAUUACGGUGC | -2.87 ± 0.16 | -1.77 ± 0.17
28 | AGGCAGCAAUAUUACGUUAA | -2.6 ± 0.15 | -1.88 ± 0.13
29 | UUCCAGCAAUAUUACGGGGA |  | -2.87 ± 0.29
30 | GAUUAGCAAUAUUACGUCUU | -0.485 ± 0.086 | -0.732 ± 0.088
31 | AAACAGCAAUAUUACGCAGA | -2.53 ± 0.15 | -1.42 ± 0.11
32 | UCCGAGCAAUAUUACGCGUA | -1.14 ± 0.098 | -0.936 ± 0.11
33 | GAGUAGCAAUAUUACGAACG | -2.36 ± 0.48 | 
34 | CUGCAGCAAUAUUACGUGCC | -2.23 ± 0.21 | -2.26 ± 0.26
35 | GCAAAGCAAUAUUACGGGGA | -2.9 ± 0.16 | -1.99 ± 0.15
36 | AUAAAGCAAUAUUACGGCUC | 0.203 ± 0.11 | 1.04 ± 0.15
37 | UGUGAGCAAUAUUACGUAGG | -3.5 ± 0.16 | -1.5 ± 0.14
38 | GGAAAGCAAUAUUACGGAAA | -2.04 ± 0.22 | -1.25 ± 0.24
39 | CGUUAGCAAUAUUACGGCCU | -1.53 ± 0.15 | -1.26 ± 0.23
40 | UUUAAGCAAUAUUACGGGUA | -2.25 ± 0.13 | -0.422 ± 0.11
41 | UAUUAGCAAUAUUACGGCAC | -1.88 ± 0.21 | -0.983 ± 0.35
42 | AGAAAGCAAUAUUACGGUCC | -0.555 ± 0.12 | 0.317 ± 0.16
43 | AGUAAGCAAUAUUACGUACA | -0.932 ± 0.1 | 0.0596 ± 0.13
44 | UGUGAGCAAUAUUACGUCUG | -0.95 ± 0.15 | -0.000357 ± 0.17
45 | AUAUAGCAAUAUUACGGAUC | -1.55 ± 0.2 | 0.109 ± 0.26
46 | AAUGAGCAAUAUUACGUUUU | -3.53 ± 0.16 | -2.15 ± 0.17
47 | GAUCAGCAAUAUUACGUAAC | -0.807 ± 0.093 | -0.643 ± 0.13
48 | CUGUAGCAAUAUUACGAGGU | -4.23 ± 0.28 | -2.42 ± 0.21
49 | CGCCAGCAAUAUUACGAUCA | -1.58 ± 0.32 | -0.817 ± 0.34
50 | GUCCAGCAAUAUUACGUUCA | -0.971 ± 0.088 | 0.797 ± 0.087
51 | ACUUAGCAAUAUUACGACGC | -0.152 ± 0.066 | -0.0939 ± 0.072
52 | UGCUAGCAAUAUUACGUGGA | -3 ± 0.19 | -2.44 ± 0.15

Row | Sequence | self-splicing fitness (ln) (30 °C) | self-splicing fitness (ln) (37 °C)
53 | CUCGAGCAAUAUUACGAUGC | -4.39 ± 0.46 | -3 ± 0.47
54 | AUGGAGCAAUAUUACGAGAU | -3.73 ± 0.28 | -1.96 ± 0.2
55 | UGGGAGCAAUAUUACGUCAG | -2.87 ± 0.23 | -1.5 ± 0.3
56 | UUGGAGCAAUAUUACGCAAA | -2.95 ± 0.44 | -2.54 ± 0.41
57 | UGAAAGCAAUAUUACGACGU | -1.06 ± 0.065 | -0.131 ± 0.084
58 | GUCAAGCAAUAUUACGGCAC | -1.35 ± 0.16 | 0.15 ± 0.22
59 | GAUGAGCAAUAUUACGGCGU | -0.735 ± 0.11 | -0.736 ± 0.13
60 | GUGAAGCAAUAUUACGGUGC | -1.74 ± 0.27 | -0.977 ± 0.27
61 | GCCAAGCAAUAUUACGUAUU | -3.29 ± 0.16 | -2.28 ± 0.14
62 | UAACAGCAAUAUUACGUUUA | -0.893 ± 0.063 | -0.563 ± 0.071
63 | UUGCAGCAAUAUUACGGCUC | -0.757 ± 0.094 | -0.29 ± 0.14
64 | UCCUAGCAAUAUUACGUCGG | -2.31 ± 0.19 | -0.128 ± 0.15
65 | CGAGAGCAAUAUUACGAGAC | -2.64 ± 0.46 | 
66 | GAGAAGCAAUAUUACGCGCC | -1.88 ± 0.33 | -0.596 ± 0.23
67 | AGCCAGCAAUAUUACGUCGA | -3.17 ± 0.17 | -2.88 ± 0.18
68 | AAACAGCAAUAUUACGUGGG | -3.64 ± 0.13 | -2.71 ± 0.11
69 | CGUUAGCAAUAUUACGCGCA | -1.01 ± 0.29 | -0.131 ± 0.47
70 | AAUAAGCAAUAUUACGCACC | -0.414 ± 0.13 | 0.346 ± 0.13
71 | AAAUAGCAAUAUUACGAUGG | -2.87 ± 0.17 | -1.97 ± 0.2
72 | GGCUAGCAAUAUUACGAGAU | -3.58 ± 0.21 | -1.34 ± 0.14
73 | GAAAAGCAAUAUUACGGUAA | -1.98 ± 0.12 | -1.18 ± 0.12
74 | CUACAGCAAUAUUACGCCAG | -1.3 ± 0.13 | -0.891 ± 0.16
75 | GCCAAGCAAUAUUACGAAUC | -1.25 ± 0.078 | -1.5 ± 0.095
76 | CUGAAGCAAUAUUACGUACU | -3.61 ± 0.31 | -2.92 ± 0.34
77 | GCCCAGCAAUAUUACGGUAA | -0.279 ± 0.06 | 0.44 ± 0.068
78 | CGACAGCAAUAUUACGCGGG | -2.71 ± 0.12 | -2.39 ± 0.15
